{"source": "patent US20250090677A1", "about": "(MULTITUDE THERAPEUTICS, published 2025)", "key": {"Human CDH6-ECD-His": {"target": "T1, Human CDH6-ECD-His (human, UniProt P55285 54-615)", "T1 construct": "extracellular domain; Bought protein; also called human CDH6-ECD-His recombinant protein; Human CDH6-EC6D-His; not shown: His tag", "T1 sequence (looked up)": "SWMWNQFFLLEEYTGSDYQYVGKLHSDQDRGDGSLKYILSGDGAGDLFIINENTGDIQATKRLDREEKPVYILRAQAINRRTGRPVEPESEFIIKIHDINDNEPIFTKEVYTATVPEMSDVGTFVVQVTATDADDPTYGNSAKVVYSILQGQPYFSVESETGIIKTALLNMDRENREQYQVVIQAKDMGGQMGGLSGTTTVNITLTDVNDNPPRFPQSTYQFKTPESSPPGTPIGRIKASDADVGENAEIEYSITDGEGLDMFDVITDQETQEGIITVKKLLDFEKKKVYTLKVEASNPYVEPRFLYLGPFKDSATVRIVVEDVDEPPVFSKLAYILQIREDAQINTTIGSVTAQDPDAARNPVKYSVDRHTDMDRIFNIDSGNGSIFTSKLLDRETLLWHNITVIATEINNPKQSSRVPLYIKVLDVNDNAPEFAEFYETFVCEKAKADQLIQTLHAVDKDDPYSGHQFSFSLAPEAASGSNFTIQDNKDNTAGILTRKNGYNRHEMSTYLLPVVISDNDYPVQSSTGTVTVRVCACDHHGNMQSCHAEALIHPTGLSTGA", "experiment": "BLI (Octet), antibody on AHC sensor, antigen 3.13-100 nM, 1:1 model", "method": "(§1) Binding affinities of CL069707-H1L1 and Ch069707 were measured using the Octet® system based on Bio-Layer Interferometry (BLI) technique. Antibodies were loaded to AHC (Anti-hIgG Fc Capture) at 100 nM concentration. […] From the six different binding curves obtained from each antigen concentration, binding constants (KD) were calculated based on the 1:1 binding model. CL069707-H1L1 and Ch069707 binds to human CDH6-ECD-His antigen with similar affinity. CL069707-H1L1 binds to human CDH6-ECD-His and cyno monkey CDH6-ECD-His antigens with similar affinity."}, "cyno monkey CDH6-ECD-His": {"target": "T2, cyno monkey CDH6-ECD-His (cyno monkey, UniProt A0A2K5TW62 54-615)", "T2 construct": "extracellular domain; Bought protein; also called Cyno CDH6-ECD-His; not shown: His tag", "T2 sequence": "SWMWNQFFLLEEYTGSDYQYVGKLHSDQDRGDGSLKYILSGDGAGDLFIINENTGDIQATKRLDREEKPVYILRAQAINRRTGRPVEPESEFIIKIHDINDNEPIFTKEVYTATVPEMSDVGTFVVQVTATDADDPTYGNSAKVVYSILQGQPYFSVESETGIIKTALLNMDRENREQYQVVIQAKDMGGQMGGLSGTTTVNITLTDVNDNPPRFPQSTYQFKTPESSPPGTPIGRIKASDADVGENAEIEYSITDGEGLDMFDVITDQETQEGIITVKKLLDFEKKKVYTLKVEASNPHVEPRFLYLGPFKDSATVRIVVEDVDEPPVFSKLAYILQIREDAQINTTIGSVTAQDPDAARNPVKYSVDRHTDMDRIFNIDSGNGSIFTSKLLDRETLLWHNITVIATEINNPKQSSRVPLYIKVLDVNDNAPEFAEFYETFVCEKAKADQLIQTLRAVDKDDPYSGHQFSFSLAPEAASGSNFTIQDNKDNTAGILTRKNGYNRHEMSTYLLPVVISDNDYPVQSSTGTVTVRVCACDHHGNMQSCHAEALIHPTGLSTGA", "experiment": "BLI (Octet), antibody on AHC sensor, antigen 3.13-100 nM, 1:1 model", "method": "as §1"}, "[1]": {"target": "T3, CDH6 on the cell surface of OVCAR-3 cells (human ovarian cancer cells) (human, UniProt P55285 54-790)", "T3 construct": "whole, on cells; also called CDH6-positive human ovarian cancer cell line OVCAR-3", "T3 sequence (looked up)": "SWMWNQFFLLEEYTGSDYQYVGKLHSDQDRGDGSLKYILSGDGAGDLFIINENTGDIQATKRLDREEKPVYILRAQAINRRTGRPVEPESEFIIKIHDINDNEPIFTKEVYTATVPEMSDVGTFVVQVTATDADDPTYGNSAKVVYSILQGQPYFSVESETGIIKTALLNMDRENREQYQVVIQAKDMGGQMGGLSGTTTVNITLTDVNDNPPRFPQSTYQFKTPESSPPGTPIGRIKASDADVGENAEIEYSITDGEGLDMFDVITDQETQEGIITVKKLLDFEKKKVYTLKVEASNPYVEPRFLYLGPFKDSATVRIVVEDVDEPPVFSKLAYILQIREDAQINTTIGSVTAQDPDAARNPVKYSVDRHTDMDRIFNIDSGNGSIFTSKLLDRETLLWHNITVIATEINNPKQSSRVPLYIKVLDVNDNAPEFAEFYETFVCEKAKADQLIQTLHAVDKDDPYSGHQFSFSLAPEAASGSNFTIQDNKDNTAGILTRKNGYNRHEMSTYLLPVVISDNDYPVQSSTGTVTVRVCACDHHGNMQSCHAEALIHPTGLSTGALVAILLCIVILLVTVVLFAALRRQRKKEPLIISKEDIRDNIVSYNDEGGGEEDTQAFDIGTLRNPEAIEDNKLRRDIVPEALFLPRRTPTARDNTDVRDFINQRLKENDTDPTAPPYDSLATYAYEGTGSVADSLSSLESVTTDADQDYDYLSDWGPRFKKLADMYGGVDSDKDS", "experiment": "flow cytometry (FACS) on OVCAR-3 cells, antibody titration, labelled secondary antibody, MFI", "method": "The binding EC50 of the humanized antibodies on tumor cell were tested as follow. Human ovarian cancer cell line OVCAR-3(purchased from National Collection of Authenticated Cell Cultures) cell culture was maintained in vitro as independent monolayer cultures at 37° C. in an atmosphere of 5% CO₂. The cells were harvested using trypsin-EDTA partial digestion followed by centrifugation at 1000 rpm for 5 minutes. The cell was resuspended in cold PBS and serial dilution of Ch069707 and CL069707-H1L1, CL069707-H1L2, CL069707-H2L1 and CL069707-H2L2 antibodies were added. Ch069707 antibody was a chimeric antibody. The variable regions were the same as those of CL069707, and the constant region was the same as human IgG1 constant regions (SEQ ID NO: 70 and SEQ ID NO: 71). The cell solutions were mixed, incubated at 4° C. and washed with cold PBS prior to addition of secondary antibody conjugates (for detection purposes). After incubation at 4° C., the cells were washed with PBS, and then subjected to flow cytometry (FACS) analysis."}}}
{"binder": "Ch069707 (antibody, human IgG1, kappa, V domains shown, also called anti-CDH6 chimeric antibody Ch069707) VH: EVHLVESGGGLVQPKGSLKLSCVASGFTFTTYAMNWVRQAPGKGLEWVARIRIKNNNYATYYADSVTDRFTISRDDSQSMLYLQMNNLKTEDTAMYYCVRPDYGNYGLAYWGQGTLVTVSA VL: EIVLTQSPTTMAASPGEKITITCSASSSISSHYLHWYQQKPGFSPKLLIYRSFYLASGVPLRFTGSGSGTSYSLTIGTMEAEDVATYYCQQDIVPLTFGAGTKLELKR", "values": [{"measurement": "Kd", "setting": "Human CDH6-ECD-His", "result": 2.28, "unit": "nM"}, {"measurement": "Kd", "setting": "cyno monkey CDH6-ECD-His", "result": 2.19, "unit": "nM"}, {"measurement": "EC50 (read off the curve)", "setting": "[1]", "result": "~0.7", "unit": "nM"}]}
